According to article PMC3991421:

Biological target: hydroxycoumarin-labeled M2 C terminus (…) (influenza A virus)
Test: […]; fluorescence anisotropy, equilibrium; […], in triplicate

## purified LC3 (from UniProt Q9GZQ8 1-120) (natural protein)
  Kd: 9.5 µM
